Measurements as given in article PMC13001094, “Cargo Recognition of Nesprin‑2 by the Dynein Adapter Bicaudal D2 for a Nuclear Positioning Pathway That Is Important for Brain Development” (Biochemistry, 2026).

B1: His6-tagged human BicD2-CTD (aa 715–804) [human] / GST-tagged mouse Nesprin-2 (aa 6123–6421) [mouse] (parent complex)
chain 1: YENEKAMVTETMMKLRNELKALKEDAATFSSLRAMFATRCDEYITQLDEMQRQLAAAEDEKKTLNSLLRMAIQQKLALTQRLELLELDHE
chain 2: RLWQKFLDDYSRFEDWLKSAERTAACPNSSEVLYTNAKEELKRFEAFQRQIHERLTQLELINKQYRRLARENRTDTASKLKQMVHEGNQRWDNLQKRVTAILRRLRYFTNQREEFEGTRESILVWLTEMDLQLTNVEHFSESDAEDKMRQLNGFQQEITLNTNKIDQLIVFGEQLIQKSEPLDAVLIEDELEELHRYCQEVFGRVSRFHRRLTSHTPGLDDEKEASENETDIEDPREIQADSWRKRRESEEPTSPQSLCHLVPPALGHERSGCETPVSVDSIPLEWDHTGDVGGSSSHE

Variants of: B1
Test: GST-pulldown, SDS-PAGE band intensity; n = 3; parent: 1; read off a plot

ratio to parent | Variant
~0.29 | chain 2 H138A
~0.32 | chain 2 Y197A
~0.81 | chain 2 E128A
~0.04 | chain 2 V124A, chain 2 L131A, chain 2 F139A

Variants of: B1
Test: as above
Remark: another data set of the same source

ratio to parent | Variant
~0.47 | chain 1 R69A
~0.47 | chain 1 E83C
